T1: LIMYB (L10-[…] MYB DOMAIN-CONTAINING PROTEIN) (Arabidopsis thaliana, UniProt Q9FFJ8 1-449)
T1 sequence: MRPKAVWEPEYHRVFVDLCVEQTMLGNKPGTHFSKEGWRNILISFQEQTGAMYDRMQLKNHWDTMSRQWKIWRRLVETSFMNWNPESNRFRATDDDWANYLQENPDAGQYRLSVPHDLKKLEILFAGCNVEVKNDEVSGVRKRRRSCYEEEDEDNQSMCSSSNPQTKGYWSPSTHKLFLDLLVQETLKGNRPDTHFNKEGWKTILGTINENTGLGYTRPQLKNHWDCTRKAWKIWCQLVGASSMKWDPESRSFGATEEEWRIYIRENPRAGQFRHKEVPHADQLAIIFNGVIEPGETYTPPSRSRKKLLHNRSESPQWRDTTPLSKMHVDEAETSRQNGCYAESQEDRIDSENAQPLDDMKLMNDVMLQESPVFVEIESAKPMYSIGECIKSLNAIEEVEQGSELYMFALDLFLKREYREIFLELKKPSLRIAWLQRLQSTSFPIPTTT

B1: RPL18 promoter 26-bp CAAAAC fragment (dsDNA)
DNA 1: GATGGAGGAAGCAAAACATTGACCAT
DNA 2: ATGGTCAATGTTTTGCTTCCTCCATC
B2: RPL18 26-bp mutant competitor (CAAAAC to ATCGTG) (dsDNA)
DNA 1: GATGGAGGAAGATCGTGATTGACCAT
DNA 2: ATGGTCAATCACGATCTTCCTCCATC

Key:
[1] = target: T1, LIMYB (L10-[…] MYB DOMAIN-CONTAINING …); assay: EMSA
[2] = target: T1, LIMYB (L10-[…] MYB DOMAIN-CONTAINING …); assay: competition

Binder	binding result [1]	binding result [2]
B1	binds	–
B2	–	no binding
